According to the supplement of paper PMC10567573:

B1: TEKT4 (parent)
chain: LREKLLEAEQSLRNLEDIHMSLEK

Variants of: B1
Assay: protein stability index of a GFP-peptide fusion (GPS, HEK-293T) (PSI 1-6); higher = more stable
Conditions: c terminus: a fixed tail appended
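Note: lentivirally expressed fusions sorted by FACS into six bins by GFP to DsRed ratio, PSI derived from sequencing read proportions per bin multiplied by bin number.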

| Variant | protein stability index |
| --- | --- |
| LREKLLEAEQPLRNLEDIHMSLEK [S11P] | 4.21 |
| LREKLLEAEQGLRNLEDIHMSLEK [S11G] | 2.28 |
| LREKLLEAEQVLRNLEDIHMSLEK [S11V] | 1.47 |
| LREKLLEAEQQLRNLEDIHMSLEK [S11Q] | 2.33 |
| LREKLLEAEQTLRNLEDIHMSLEK [S11T] | 2.55 |
| LREKLLEAEQMLRNLEDIHMSLEK [S11M] | 1.05 |
| LREKLLEAEQFLRNLEDIHMSLEK [S11F] | 1.96 |
| LREKLLEAEQWLRNLEDIHMSLEK [S11W] | 1.48 |
| LREKLLEAEQLLRNLEDIHMSLEK [S11L] | 1.83 |
| LREKLLEAEQILRNLEDIHMSLEK [S11I] | 4.94 |
| LREKLLEAEQALRNLEDIHMSLEK [S11A] | 1.5 |
| LREKLLEAEQYLRNLEDIHMSLEK [S11Y] | 1.83 |
| LREKLLEAEQHLRNLEDIHMSLEK [S11H] | 2.75 |
| LREKLLEAEQKLRNLEDIHMSLEK [S11K] | 2.08 |
| LREKLLEAEQDLRNLEDIHMSLEK [S11D] | 2.57 |
| LREWLLEAEQSLRNLEDIHMSLEK [K4W] | 1.74 |
| LREHLLEAEQSLRNLEDIHMSLEK [K4H] | 3.01 |
| LREMLLEAEQSLRNLEDIHMSLEK [K4M] | 1.76 |
| LREELLEAEQSLRNLEDIHMSLEK [K4E] | 3.17 |
| LREYLLEAEQSLRNLEDIHMSLEK [K4Y] | 2.33 |
| LRESLLEAEQSLRNLEDIHMSLEK [K4S] | 2.63 |
| LRETLLEAEQSLRNLEDIHMSLEK [K4T] | 3.9 |
| LREDLLEAEQSLRNLEDIHMSLEK [K4D] | 4.01 |
| LRERLLEAEQSLRNLEDIHMSLEK [K4R] | 2.88 |

| Variant | protein stability index |
| --- | --- |
| LREGLLEAEQSLRNLEDIHMSLEK [K4G] | 3.45 |
| LREPLLEAEQSLRNLEDIHMSLEK [K4P] | 3.54 |
| LRECLLEAEQSLRNLEDIHMSLEK [K4C] | 2.54 |
| LREVLLEAEQSLRNLEDIHMSLEK [K4V] | 2.51 |
| LREFLLEAEQSLRNLEDIHMSLEK [K4F] | 1.43 |
| LRENLLEAEQSLRNLEDIHMSLEK [K4N] | 3.27 |
| LREILLEAEQSLRNLEDIHMSLEK [K4I] | 2.36 |
| LREALLEAEQSLRNLEDIHMSLEK [K4A] | 2.21 |
| LREQLLEAEQSLRNLEDIHMSLEK [K4Q] | 2.17 |
| LREKLLEQEQSLRNLEDIHMSLEK [A8Q] | 2.72 |
| LREKLLEPEQSLRNLEDIHMSLEK [A8P] | 4.59 |
| LREKLLENEQSLRNLEDIHMSLEK [A8N] | 4.59 |
| LREKLLEFEQSLRNLEDIHMSLEK [A8F] | 2.52 |
| LREKLLELEQSLRNLEDIHMSLEK [A8L] | 1.63 |
| LREKLLEYEQSLRNLEDIHMSLEK [A8Y] | 3.58 |
| LREKLLETEQSLRNLEDIHMSLEK [A8T] | 2.61 |
| LREKLLEHEQSLRNLEDIHMSLEK [A8H] | 3.67 |
| LREKLLEREQSLRNLEDIHMSLEK [A8R] | 3.92 |
| LREKLLEWEQSLRNLEDIHMSLEK [A8W] | 1.8 |
| LREKLLEGEQSLRNLEDIHMSLEK [A8G] | 2.2 |
| LREKLLEVEQSLRNLEDIHMSLEK [A8V] | 2.72 |
| LREKLLECEQSLRNLEDIHMSLEK [A8C] | 1.64 |
| LREKLLEEEQSLRNLEDIHMSLEK [A8E] | 3.99 |
| LREKLLEKEQSLRNLEDIHMSLEK [A8K] | 4.01 |

| Variant | protein stability index |
| --- | --- |
| LREKLLEDEQSLRNLEDIHMSLEK [A8D] | 2.86 |
| LREKLLEIEQSLRNLEDIHMSLEK [A8I] | 1.48 |
| LREKLLESEQSLRNLEDIHMSLEK [A8S] | 3 |
| LREKLLDAEQSLRNLEDIHMSLEK [E7D] | 2.38 |
| LREKLLWAEQSLRNLEDIHMSLEK [E7W] | 1.75 |
| LREKLLYAEQSLRNLEDIHMSLEK [E7Y] | 2.08 |
| LREKLLCAEQSLRNLEDIHMSLEK [E7C] | 2.17 |
| LREKLLLAEQSLRNLEDIHMSLEK [E7L] | 1.75 |
| LREKLLAAEQSLRNLEDIHMSLEK [E7A] | 2.46 |
| LREKLLFAEQSLRNLEDIHMSLEK [E7F] | 2.5 |
| LREKLLHAEQSLRNLEDIHMSLEK [E7H] | 3.6 |
| LREKLLSAEQSLRNLEDIHMSLEK [E7S] | 2.42 |
| LREKLLQAEQSLRNLEDIHMSLEK [E7Q] | 2.35 |
| LREKLLTAEQSLRNLEDIHMSLEK [E7T] | 2.93 |
| LREKLLMAEQSLRNLEDIHMSLEK [E7M] | 2.38 |
| LREKLLNAEQSLRNLEDIHMSLEK [E7N] | 2.39 |
| LREKLLVAEQSLRNLEDIHMSLEK [E7V] | 2.56 |
| LREKLLKAEQSLRNLEDIHMSLEK [E7K] | 2.51 |
| LREKLLIAEQSLRNLEDIHMSLEK [E7I] | 2.06 |
| LREKLLPAEQSLRNLEDIHMSLEK [E7P] | 4.17 |
| LREKLLGAEQSLRNLEDIHMSLEK [E7G] | 3.75 |
| LREKLWEAEQSLRNLEDIHMSLEK [L6W] | 2.23 |
| LREKLREAEQSLRNLEDIHMSLEK [L6R] | 2.86 |
| LREKLAEAEQSLRNLEDIHMSLEK [L6A] | 3.11 |

| Variant | protein stability index |
| --- | --- |
| LREKLNEAEQSLRNLEDIHMSLEK [L6N] | 2.89 |
| LREKLIEAEQSLRNLEDIHMSLEK [L6I] | 1.86 |
| LREKLKEAEQSLRNLEDIHMSLEK [L6K] | 3.31 |
| LREKLMEAEQSLRNLEDIHMSLEK [L6M] | 2.83 |
| LREKLDEAEQSLRNLEDIHMSLEK [L6D] | 3.54 |
| LREKLYEAEQSLRNLEDIHMSLEK [L6Y] | 2.61 |
| LREKLPEAEQSLRNLEDIHMSLEK [L6P] | 5.19 |
| LREKLCEAEQSLRNLEDIHMSLEK [L6C] | 2.92 |
| LREKLGEAEQSLRNLEDIHMSLEK [L6G] | 2.65 |
| LREKLTEAEQSLRNLEDIHMSLEK [L6T] | 2.94 |
| LREKLEEAEQSLRNLEDIHMSLEK [L6E] | 2.84 |
| LREKLHEAEQSLRNLEDIHMSLEK [L6H] | 3.27 |
| LREKLSEAEQSLRNLEDIHMSLEK [L6S] | 4.23 |
| LREKLFEAEQSLRNLEDIHMSLEK [L6F] | 2.34 |
| LREKLVEAEQSLRNLEDIHMSLEK [L6V] | 2.65 |
| LREKLQEAEQSLRNLEDIHMSLEK [L6Q] | 2.91 |
| LREKLLEAEQSPRNLEDIHMSLEK [L12P] | 4.6 |
| LREKLLEAEQSWRNLEDIHMSLEK [L12W] | 1.79 |
| LREKLLEAEQSNRNLEDIHMSLEK [L12N] | 4.57 |
| LREKLLEAEQSMRNLEDIHMSLEK [L12M] | 2.97 |
| LREKLLEAEQSTRNLEDIHMSLEK [L12T] | 3.17 |
| LREKLLEAEQSFRNLEDIHMSLEK [L12F] | 1.69 |
